Tests used:
Assay in all cases: NMR line shape analysis
human Cyclophilin A = human Cyclophilin A (human, UniProt P62937 1-165)
[1] = target: cyclophilin domain of human Cyclophilin B (residues 39-216) (human, UniProt P23284 39-216)
[2] = target: cyclophilin domain of human Cyclophilin C (residues 25-212) (human, UniProt P45877 25-212)
cyclophilin domain of human Cyclophilin C (residues 25-212), sequence (P45877 25-212): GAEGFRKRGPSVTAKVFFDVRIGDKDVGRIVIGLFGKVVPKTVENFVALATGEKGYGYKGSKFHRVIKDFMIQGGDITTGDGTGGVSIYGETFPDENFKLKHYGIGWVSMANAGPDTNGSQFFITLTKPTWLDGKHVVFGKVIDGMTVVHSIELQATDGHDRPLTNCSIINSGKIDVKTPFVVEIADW

human Cyclophilin A, sequence (P62937 whole entry, the tested form may be a part): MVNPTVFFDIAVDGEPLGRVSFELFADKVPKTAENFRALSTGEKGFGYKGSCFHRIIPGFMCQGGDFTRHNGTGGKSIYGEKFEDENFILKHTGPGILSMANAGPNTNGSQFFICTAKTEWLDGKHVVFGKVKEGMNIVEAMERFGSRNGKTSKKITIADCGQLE
cyclophilin domain of human Cyclophilin B (residues 39-216), sequence (P23284 39-216): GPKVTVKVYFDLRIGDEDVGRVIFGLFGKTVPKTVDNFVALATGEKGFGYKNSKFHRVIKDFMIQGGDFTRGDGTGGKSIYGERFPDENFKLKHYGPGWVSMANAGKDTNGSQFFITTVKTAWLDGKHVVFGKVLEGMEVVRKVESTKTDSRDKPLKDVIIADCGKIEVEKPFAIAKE

koff of the cis isomer (kCD) (human Cyclophilin A): 170 s⁻¹ | koff of the trans isomer (kBA) (human Cyclophilin A): 550 s⁻¹ | kon of the cis isomer (kDC) (human Cyclophilin A): 1e+07 M⁻¹ s⁻¹ | kon of the trans isomer (kAB) (human Cyclophilin A): 3.2e+06 M⁻¹ s⁻¹ | koff of the cis isomer (kCD) [1]: 200 s⁻¹ | koff of the trans isomer (kBA) [1]: 960 s⁻¹ | kon of the cis isomer (kDC) [1]: 4.9e+06 M⁻¹ s⁻¹ | kon of the trans isomer (kAB) [1]: 2.1e+06 M⁻¹ s⁻¹ | koff of the cis isomer (kCD) [2]: 260 s⁻¹ | koff of the trans isomer (kBA) [2]: 1620 s⁻¹ | kon of the cis isomer (kDC) [2]: 7.9e+06 M⁻¹ s⁻¹ | kon of the trans isomer (kAB) [2]: 4.2e+06 M⁻¹ s⁻¹
Binder: GSFGPDLRAGD [peptide substrate GSFGPDLRAGD]
